Target: HyHEL-10 antibody
Test: SPR; binding affinity of the HEL variants to HyHEL-10; who was immobilised is not shown (Fig. S20)

HEL-K96Nvoc (10) (from UniProt P00698 19-147) (natural protein)
fold weaker binding affinity than native HEL: 6000 fold

Reference: paper PMC5965250
